Laboratory results from US20210261648A1 (published 2021).
Numbering of substitutions follows the chain as printed. Numbers in names are those of the source. Blank lines part the entries; values can stand above or below the binder they belong to.

Experiments:
[1] = target: T1, FcγRIIb extracellular domain with C-terminal His tag (human, UniProt P31994 43-217); test: SPR (Biacore), relative amount of binding
T1 construct: extracellular domain; For crystals it was expressed with kifunensine and trimmed with Endo F1; also called FcgRIIb; FcγRIIb extracellular region
T1 sequence (looked up): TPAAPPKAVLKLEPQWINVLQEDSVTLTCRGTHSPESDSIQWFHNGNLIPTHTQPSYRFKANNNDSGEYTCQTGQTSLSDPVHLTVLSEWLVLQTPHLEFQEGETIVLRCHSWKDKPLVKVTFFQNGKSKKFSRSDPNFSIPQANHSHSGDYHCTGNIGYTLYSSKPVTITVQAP

[2] = target: T2, FcγRIIa type H extracellular domain with C-terminal His tag (human, UniProt P12318 34-217); test: SPR (Biacore), relative amount of binding
T2 construct: extracellular domain; also called FcgRIIaH; FcγRIIa H
T2 sequence (looked up): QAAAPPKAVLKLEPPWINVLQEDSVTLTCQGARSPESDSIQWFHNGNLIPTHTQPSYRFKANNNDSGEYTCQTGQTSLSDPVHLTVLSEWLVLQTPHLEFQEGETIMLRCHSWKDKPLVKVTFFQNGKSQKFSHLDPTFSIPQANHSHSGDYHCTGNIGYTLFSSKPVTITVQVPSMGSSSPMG

[3] = target: T3, FcγRIIa type R extracellular domain with C-terminal His tag (human, UniProt P12318 34-217); test: SPR; KD of IL6R-B3/IL6R-L divided by KD of the variant
T3 chain: T2 sequence (looked up) with H134R

[4] = target: T4, FcγRIIb extracellular domain with C-terminal His tag (human, UniProt P31994 43-217); test: as above
T4 construct: extracellular domain; For crystallography it was expressed with kifunensine and trimmed with Endo F1; also called FcgRIIb; FcγRIIb extracellular region; not shown: His tag attached to the C terminus
T4 sequence (looked up): T1 sequence (looked up)

[5] = target: T4, FcγRIIb extracellular domain with …; test: SPR; KD for FcγRIIaR divided by KD for FcγRIIb
[6] = target: T4, FcγRIIb extracellular domain with …; test: SPR; KD for FcγRIIaH divided by KD for FcγRIIb
[7] = target: T5, FcγRIa extracellular domain with C-terminal His tag (human, UniProt P12314 16-292); test: SPR (Biacore), antibody captured, FcγR as analyte
T5 construct: also called FcgRIa; not shown: His tag attached to the C terminus
T5 sequence (P12314 16-292): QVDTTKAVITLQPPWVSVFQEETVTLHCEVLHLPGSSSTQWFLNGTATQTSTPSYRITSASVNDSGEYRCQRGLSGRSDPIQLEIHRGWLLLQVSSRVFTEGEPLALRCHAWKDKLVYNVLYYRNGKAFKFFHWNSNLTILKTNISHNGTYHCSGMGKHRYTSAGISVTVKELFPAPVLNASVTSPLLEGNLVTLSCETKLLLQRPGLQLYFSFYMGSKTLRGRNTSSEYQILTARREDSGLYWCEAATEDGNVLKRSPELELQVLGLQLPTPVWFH

[8] = target: T6, FcγRIIa type H extracellular domain with C-terminal His tag (human, UniProt P12318 34-217); test: SPR (Biacore), antibody captured, FcγR as analyte
T6 construct: extracellular domain; also called FcγRIIaH; FcgRIIaH; not shown: His tag attached to the C terminus
T6 sequence (looked up): T2 sequence (looked up)

[9] = target: T3, FcγRIIa type R extracellular domain …; test: SPR (Biacore), antibody captured, FcγR as analyte
[10] = target: T4, FcγRIIb extracellular domain with …; test: SPR (Biacore), antibody captured, FcγR as analyte

- binding result [1]: binds
- binding result [2]: binds
B1: B3 variant of GpH7-B3/GpL16-k0 with Leu at position 328 (EU numbering) substituted with Glu (antibody, human IgG1, kappa)
heavy: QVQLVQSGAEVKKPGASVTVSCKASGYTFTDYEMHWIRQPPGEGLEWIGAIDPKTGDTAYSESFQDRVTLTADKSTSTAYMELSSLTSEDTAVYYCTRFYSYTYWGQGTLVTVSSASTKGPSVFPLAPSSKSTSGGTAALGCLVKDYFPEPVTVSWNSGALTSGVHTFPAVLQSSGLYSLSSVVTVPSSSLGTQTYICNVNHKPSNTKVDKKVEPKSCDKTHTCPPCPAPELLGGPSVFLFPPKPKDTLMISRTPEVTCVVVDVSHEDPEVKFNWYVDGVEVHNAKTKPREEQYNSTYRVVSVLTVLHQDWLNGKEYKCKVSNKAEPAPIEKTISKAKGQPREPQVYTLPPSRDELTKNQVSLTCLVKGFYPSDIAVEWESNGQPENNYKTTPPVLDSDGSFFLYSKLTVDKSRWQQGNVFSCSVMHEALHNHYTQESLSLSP
light: DIVMTQSPLSLPVTPGEPASISCQASESLVHSNRNTYLHWYLQKPGQSPQLLIYKVSNRFSGVPDRFSGSGSGTDFTLKISRVEAEDVGVYYCSQNTHVPPTFGQGTKVEIERTVAAPSVFIFPPSDEQLKSGTASVVCLLNNFYPREAKVQWKVDNALQSGNSQESVTEQDSKDSTYSLSSTLTLSKADYEKHKVYACEVTHQGLSSPVTKSFNRGEC
notes: also called mutation B

- KD(IIaR) of the parent polypeptide/KD(IIaR) of the altered polypeptide [3]: 2.4
- KD(IIb) of the parent polypeptide/KD(IIb) of the altered polypeptide [4]: 196
- KD(IIaR)/KD(IIb) [5]: 29.1
- KD(IIaH)/KD(IIb) [6]: 525
- Kd [7]: 0.012 µM
- Kd [8]: 8.3 µM
- Kd [9]: 0.46 µM
- Kd [10]: 0.016 µM
B2: IL6R-BP563/IL6R-L (antibody, human IgG1, kappa)
heavy: QVQLQESGPGLVKPSETLSLTCAVSGHSISHDHAWSWVRQPPGEGLEWIGFISYSGITNYNPSLQGRVTISRDNSKNTLYLQMNSLRAEDTAVYYCARSLARTTAMDYWGEGTLVTVSSASTKGPSVFPLAPSSKSTSGGTAALGCLVKDYFPEPVTVSWNSGALTSGVHTFPAVLQSSGLYSLSSVVTVPSSSLGTQTYICNVNHKPSNTKVDKKVEPKSCDKTHTCPPCPAPDLLGDDSVFLFPPKPKDTLMISRTPEVTCVVVDVSEEDGDVKFNWYVDGVEVHNAKTKPREEQDNSTYRVVSVLTVLHQDWLNGKEYKCKVSNKALPRPIEKTISKAKGQPREPQVYTLPPSRDELTKNQVSLTCLVKGFYPSDIAVEWESNGQPENNYKTTPPVLDSDGSFFLYSKLTVDKSRWQQGNVFSCSVMHEALHNHYTQESLSLSP
light: not shown
notes: Anti-human IL-6R IgG1; alterations introduced into IL6R-B3 (G1d with K439E)

- KD(IIaR) of the parent polypeptide/KD(IIaR) of the altered polypeptide [3]: 4.8
- KD(IIb) of the parent polypeptide/KD(IIb) of the altered polypeptide [4]: 565
- KD(IIaR)/KD(IIb) [5]: 41.5
- KD(IIaH)/KD(IIb) [6]: 856
- Kd [7]: 0.0024 µM
- Kd [8]: 4.7 µM
- Kd [9]: 0.23 µM
- Kd [10]: 0.0055 µM
B3: IL6R-BP565/IL6R-L (antibody, human IgG1, kappa)
heavy: B2 heavy with S269A, D274E
light: not shown
notes: as for B2
